From US20220054706A1 (KING ABDULLAH UNIVERSITY OF SCIENCE AND TECHNOLOGY, published 2022)

Target: the molecule itself
Experiment: 2D NMR (NOESY/TOCSY) of the self-assembling peptide in 90% H2O-10% D2O
Description: 2D NMR of peptide solution was carried out to study the spatial structure during the assembly process. These NMR spectra were recorded on a Bruker Avance III 600 MHz equipped with a 5 mm Z-gradient SmartProbe BB(F)-H-D (BrukerBioSpin™, Rheinstetten, Germany). The samples were prepared from 10 mg of peptide in a mixture of 900 μL of 1 mM 2,2-Dimethyl-2-silapentane-5-sulfonate (DSS) and 100 μL of D₂O. ¹H-NMR was recorded by collecting 32 scans using excitation sculping with gradients pulse program (zgesgp) for water suppression.¹⁰⁹ COSY and TOCSY were then conducted to see the correlation between hydrogens that were coupled to each other. COSY was performed using a time domain of 4096 (F2)×512 (F1), 16 number of scans, a pulse program of cosydfgpph19, and 3-9-19 pulse sequence for water suppression.¹¹⁰⁻¹¹² For TOCSY, the parameters with time domain of 8192 (F2)×512 (F1), 16 number of scans, a pulse program of dipsi2gpph19, and 3-9-19 pulse sequence for water suppression were set. Finally, the NOESY acquisition was carried out with a time-domain size of 2048 (F2)×512 (F1), 32 scan numbers, a pulse program of noesyesgpph19, a mixing time of 400 ms, and water suppression using 3-9-19 pulse sequence. Broker Topspin 3.5pI7 software was used in all NMR experiments for both data collection and spectral analyses.

B1: Ac-Ile-Val-Phe-Lys-NH2 (IVFK) (peptide)
peptide: Ac-IVFK-NH2
notes: Synthetic self-assembling tetrapeptide; In the NMR experiment it stood at 10 mg in 900 uL of 1 mM DSS plus 100 uL D2O; also called aromatic IVFK
- binding result: binds
